Measurements: patent US20160137740A1 (AstraZeneca / MedImmune, published 2016)
Residue numbers refer to the chain shown, from its start. Values joined by “and” are separate entries in the source; they are usually repeats but may differ in a detail not shown here. Equal values may be shown once.

What was measured:
Human OX40 [1] = target: T1, Human OX40 (human, UniProt P43489 29-277); experiment: flow cytometry on human OX40-overexpressing Jurkat clone 64 cells; 50% receptor occupancy calculated from Kd
T1 construct: also called CD134; TNFRSF4
T1 sequence: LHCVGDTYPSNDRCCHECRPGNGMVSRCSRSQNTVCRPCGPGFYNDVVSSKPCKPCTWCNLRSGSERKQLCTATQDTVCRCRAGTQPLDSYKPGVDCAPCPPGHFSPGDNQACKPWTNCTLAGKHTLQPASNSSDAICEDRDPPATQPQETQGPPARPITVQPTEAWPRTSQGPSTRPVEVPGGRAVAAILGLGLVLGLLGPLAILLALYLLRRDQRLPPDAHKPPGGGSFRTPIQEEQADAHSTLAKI
Description: (§1) Human OX40-overexpressing Jurkat NFκB-luciferase clone 64 cells were cultured in complete RPMI+10% FBS prior to binding experiments, without the need for activation.
(§2) OX40mAb24 (10 μg/mL) or 9B12 (10 μg/mL) was diluted over a 17 point 2-fold dilution series. OX40mAb24 was added to 100,000 cells (activated primary CD4⁺ T cells or human OX40-overexpressing Jurkat NFkB-luciferase clone 64 cells) per well and incubated for one hour at 4° C. For background binding subtraction, cells were incubated in the presence of secondary antibody alone. […] Following secondary antibody incubation, cells were washed and suspended in 100 μL FACS buffer for flow cytometry analysis on a BD LSRII flow cytometer as described below.

Human OX40 [2] = target: T1, Human OX40; experiment: cell-based or functional assay
Human OX40 [3] = target: T1, Human OX40; experiment: cell-based or functional assay; remark: listed apart in the source
Cynomolgus monkey OX40 = target: T2, Cynomolgus monkey OX40 (cynomolgus monkey); experiment: flow cytometry, equilibrium binding to activated primary cynomolgus CD4+ T cells; mean of 2 experiments (StdErr)
T2 construct: also called cyno OX40
Description: Cyno CD4⁺ T cell isolation was performed with a Miltenyi non-human primate kit according to manufacturer's instructions, then CD4⁺ T cells counted on a ViCell counter and suspended at 1×10⁶ per mL in complete medium as described above.
Cyno CD4⁺ T cells (1×10⁶ per mL in complete medium) were incubated for 48 hours in a T75 cell culture flask with 2 μg/mL PHA-L and 20 IU/mL IL-2, to activate T cells and induce OX40 expression. Activated CD4⁺ T cells were removed from the flask and 100,000 cells were transferred to each well of a non-tissue culture treated 96-well round-bottom plate for binding assays and washed with 200 μL FACS buffer. Binding was performed with 10 μg/mL OX40mAb24 or 9B12 serially diluted 4-fold in FACS buffer for an 11-point data curve, or both R347 human IgG1 or mouse IgG1 clone MOPC-21 (negative controls) serially diluted 6-fold for a 3 point data curve. OX40mAb24, 9B12 or control protein was added to CD4⁺ T cells and incubated. […] Following secondary antibody incubation, cells were processed for flow cytometry as described in Section 2.3.

[4] = target: T3, KO_L116+A126 (human OX40 aa Leu116 and Ala126 replaced with the mouse counterparts) (human, UniProt P43489 29-277); experiment: flow cytometry, transfected 293F cells, column KO_L116A126 [FIGURE 32B con't]
T3 construct: Variant with a transmembrane domain, transient on 293F cells
T3 chain: T1 sequence with L88Q, A98V
Description: Forty-eight hours after transfection, HEK293F cells were incubated with 1 μg/mL of OX40mAb24 for 1 hour on ice in PBS. To detect bound OX40mAb24 by flow cytometry, the cells were washed 3-times with cold PBS, incubated with 1 μg/mL of Alexa480-conjugated anti-human IgG antibody for 1 hr on ice, and then analyzed using the LSRII flow cytometer.
The expression levels of all chimeric OX40 variants were also monitored by flow cytometry; the cells were incubated with a mixture of sheep anti-human OX40 and goat anti-mouse OX40 polyclonal antibodies at 1 μg/mL in PBS for 1 hour on ice. Cells were washed 3-times with cold PBS, and then incubated with a mixture of Alexa480-conjugated anti-goat and anti-sheep IgG polyclonal antibodies. After washing 3 times with cold PBS, cells were analyzed with the LSRII flow cytometer.

Human OX40 [5] = target: T1, Human OX40; experiment: cell-based or functional assay; remark: listed apart in the source
Human OX40 [6] = target: T1, Human OX40; experiment: flow cytometry on activated primary human CD4+ T cells; 50% receptor occupancy calculated from Kd
Description: as §2

Human OX40 [7] = target: T1, Human OX40; experiment: flow cytometry, equilibrium binding to human OX40-overexpressing Jurkat NFkB-luciferase clone 64 cells; mean of 3 experiments (StdErr)
Description: as §1, §2

Human OX40 [8] = target: T1, Human OX40; experiment: flow cytometry on activated primary human CD4+ T cells, AlexaFluor 488 anti-mouse IgG secondary [FIGURE 2A-D, con't.), panel C]
Description: as §2

Human OX40 [9] = target: T1, Human OX40; experiment: cell-based or functional assay; remark: listed apart in the source
[10] = target: cyno/rhesus OX40 expressed on Jurkat NFκB-luciferase reporter clone B2 (cynomolgus/rhesus monkey); experiment: cell-based or functional assay
Human OX40 [11] = target: T1, Human OX40; experiment: cell-based or functional assay; remark: listed apart in the source
Human OX40 [12] = target: T1, Human OX40; experiment: cell-based or functional assay; remark: listed apart in the source
Human OX40 [13] = target: T1, Human OX40; experiment: cell-based or functional assay; remark: listed apart in the source

B1: 9B12 (antibody, mouse IgG1, V domains shown)
VH: EVQLQESGPSLVKPSQTLSLTCSVTGDSFTSGYWNWIRKFPGNRLEYMGYISYNGITYHNPSLKSRISITRDTSKNHYYLQLNSVTTEDTATYFCARYRYDYDGGHAMDYWGQGTLVTVSS
VL: DIQMTQTTSSLSASLGDRVTISCRASQDISNYLNWYQQKPDGTVKLLIYYTSKLHSGVPSRFSGSGSRTDYSLTITDLDQEDIATYFCQQGSALPWTFGQGTKVEIKR
notes: mouse IgG1 kappa; also called murine mAb 9B12; mouse anti-human OX40 IgG1κ monoclonal antibody
- EC50 (Human OX40 [1]): 0.726 nM
- EC50, IL13 release, donor 645 (Human OX40 [2]): 5.45 nM
- EC50, IL13 release, donor 651 (Human OX40 [2]): 1.77 nM
- EC50, IL13 release, donor 661 (Human OX40 [2]): 0.238 nM
- EC50, IL5 release, donor 651 (Human OX40 [3]): 1.09 nM
- Kd (Cynomolgus monkey OX40): 1.09 nM
- binding result [4]: no binding
- EC50, IL10 release, donor 367 (Human OX40 [5]): 0.198 nM
- EC50, IL10 release, donor 645 (Human OX40 [5]): 1.22 nM
- EC50, IL10 release, donor 651 (Human OX40 [5]): 0.796 nM
- EC50 (Human OX40 [6]): 0.669 nM
- Kd (Human OX40 [7]): 0.726 nM
- EC50 (read off the curve) (Human OX40 [8]): ~1 nM and ~0.5 nM
- EC50, NFκB-luciferase 2-cell assay, exp 1, Raji (Human OX40 [9]): 9.28 nM
- EC50, NFκB-luciferase 2-cell assay, exp 2, CD32A-expressing HEK (Human OX40 [9]): 0.338 nM
- EC50, NFκB-luciferase 2-cell assay, exp 3, CD32A-expressing HEK (Human OX40 [9]): 0.225 nM
- EC50, NFκB-luciferase 2-cell assay, exp 4, Raji (Human OX40 [9]): 5.04 nM
- EC50, NFκB-luciferase 2-cell assay, exp 5, CD32B-expressing HEK (Human OX40 [9]): 0.726 nM
- EC50, NFκB-luciferase 2-cell assay, exp 6, Raji (Human OX40 [9]): 2.7 nM
- EC50, NFκB-luciferase 2-cell assay, exp 7, CD32B-expressing HEK (Human OX40 [9]): 1.77 nM
- EC50, NFκB-luciferase 2-cell assay, exp 8, CD32B-expressing HEK (Human OX40 [9]): 1.34 nM
- EC50, NFκB-luciferase 2-cell assay, exp 9, Raji (Human OX40 [9]): 3.07 nM
- EC50, NFκB-luciferase 2-cell assay, exp 10, Raji (Human OX40 [9]): 3.33 nM
- EC50, NFκB-luciferase 2-cell assay, exp 11, CD32B-expressing HEK (Human OX40 [9]): 2.36 nM
- EC50, NFκB-luciferase 2-cell assay, exp 12, CD45+ cells, NSCLC (Human OX40 [9]): 0.223 nM
- EC50, NFκB-luciferase 2-cell assay, exp 15, CD45+ cells, RCC (Human OX40 [9]): 2.42 nM
- EC50, NFκB-luciferase 2-cell assay, rhesus RBC-lysed whole blood + cyno/rhesus OX40 Jurkat clone B2 [10]: 6.05 nM
- mean EC50, NFκB-luciferase 2-cell assay, human Raji B cells + human OX40 Jurkat clone 64 (Human OX40 [11]): 4.68 nM
- EC50, TNFα release, donor 645 (Human OX40 [12]): 0.67 nM
- EC50, TNFα release, donor 651 (Human OX40 [12]): 0.764 nM
- EC50, IFNγ release, donor 645 (Human OX40 [13]): 2.38 nM
- EC50, IFNγ release, donor 651 (Human OX40 [13]): 0.758 nM
